# From IntAct's records for PubMed 23858060
# B1: Galactose/lactose metabolism regulatory protein GAL80 (Saccharomyces cerevisiae), P04387 (parent)
# chain: MDYNKRSSVSTVPNAAPIRVGFVGLNAAKGWAIKTHYPAILQLSSQFQITALYSPKIETSIATIQRLKLSNATAFPTLESFASSSTIDMIVIAIQVASHYEVVMPLLEFSKNNPNLKYLFVEWALACSLDQAESIYKAAAERGVQTIISLQGRKSPYILRAKELISQGYIGDINSIEIAGNGGWYGYERPVKSPKYIYEIGNGVDLVTTTFGHTIDILQYMTSSYFSRINAMVFNNIPEQELIDERGNRLGQRVPKTVPDHLLFQGTLLNGNVPVSCSFKGGKPTKKFTKNLVIDIHGTKGDLKLEGDAGFAEISNLVLYYSGTRANDFPLANGQQAPLDPGYDAGKEIMEVYHLRNYNAIVGNIHRLYQSISDFHFNTKKIPELPSQFVMQGFDFEGFPTLMDALILHRLIESVYKSNMMGSTLNVSNISHYSL
# partner: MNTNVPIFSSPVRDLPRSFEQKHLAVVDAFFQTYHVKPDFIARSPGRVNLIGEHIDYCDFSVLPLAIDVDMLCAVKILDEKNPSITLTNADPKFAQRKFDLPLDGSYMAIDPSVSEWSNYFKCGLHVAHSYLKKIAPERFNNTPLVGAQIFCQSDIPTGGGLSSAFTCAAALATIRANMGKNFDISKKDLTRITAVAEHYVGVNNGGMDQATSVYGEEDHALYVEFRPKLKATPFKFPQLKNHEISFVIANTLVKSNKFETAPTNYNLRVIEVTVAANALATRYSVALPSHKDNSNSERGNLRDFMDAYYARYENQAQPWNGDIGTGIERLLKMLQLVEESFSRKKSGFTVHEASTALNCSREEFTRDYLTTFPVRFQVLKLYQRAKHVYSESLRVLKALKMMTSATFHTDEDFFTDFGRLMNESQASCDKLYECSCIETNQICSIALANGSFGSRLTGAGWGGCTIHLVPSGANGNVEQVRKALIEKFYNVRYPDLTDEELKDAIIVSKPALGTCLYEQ
# Variants of: B1
# Conditions: with gal3_yeast GAL3, P13045
row,effect of a mutation on the interaction,Variant
1,with no effect,E351K
